Results taken from the supplement of paper PMC7877785.
± gives the uncertainty stated by the source.

Assay: self-splicing fitness, log relative to wild type (ln ratio); higher = more splicing; Tetrahymena group I intron in knt gene, E. coli kanamycin selection, DiMSum; sequences stand for … in CUCUCU…GGAGGGAAAAGUUAUCAGGCAUGCACCUGGUAGCUAGUCUUUAAACCAAUAGAUUGCAUCGGUUUAAAAGGCAAGACCGUCAAAUUGCGGGAAAGGGGUCAACAGCCGUUCAGUACCAAGUCUCAGGGGAAACUUUGAGAUGGCCUUGCAAAGGGUAUGGUAAUAAGCUGACGGACAUGGUCCUAACCACGCAGCCAAGUCCUAAGUCAACAGAUCUUCUGUUGAUAUGGAUGCAGUUCACAGACUAAAUGUCGGUCGGGGAAGAUGUAUUCUUCUCAUAAGAUAUAGUCGGACCUCUCCUUAAUGGGAGCUAGCGGAUGAAGUGAUGCAACACUGGAGCCGCUGGGAACUAAUUUGUAUGCGAAAGUAUAUUGAUUAGUUUUGGAGUACUCGUGGUCG
Outline: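 A randomised library covering all eight P1ex-region intron nucleotides was built with the intron in the knt kanamycin-resistance gene on pET-22b(+) and held in E. coli BL21(DE3). Cells were grown overnight at 37°C or 30°C on LB agar, with or without 25 μg/mL kanamycin, plus 100 μg/mL carbenicillin, 50 μM IPTG and 0.2% rhamnose, and pooled colonies were amplicon-sequenced on an Illumina HiSeq 2500. DiMSum fitness is the error-weighted combination of wild-type-normalised replicate fold changes, kanamycin versus none.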

Row | Sequence | self-splicing fitness (ln) (37 °C) | self-splicing fitness (ln) (30 °C)
1 | AUGGAGCAAUAUUACGGGGU | -2.27 ± 0.37 | –
2 | AACGAGCAAUAUUACGCUGC | -3.06 ± 0.35 | -3.01 ± 0.26
3 | CAAGAGCAAUAUUACGACAG | 0.045 ± 0.11 | -0.511 ± 0.08
4 | GCAUAGCAAUAUUACGUACC | -0.405 ± 0.26 | -0.706 ± 0.19
5 | GAACAGCAAUAUUACGCUGU | -2.99 ± 0.19 | -3.8 ± 0.14
6 | AGCGAGCAAUAUUACGGAGC | -2.92 ± 0.4 | –
7 | GCCUAGCAAUAUUACGACUG | -2.97 ± 0.4 | -3.25 ± 0.27
8 | AUUUAGCAAUAUUACGGUCC | -0.126 ± 0.15 | -2.72 ± 0.17
9 | CAAUAGCAAUAUUACGAAUG | -0.357 ± 0.098 | -1.11 ± 0.076
10 | CUUUAGCAAUAUUACGACAC | -2.54 ± 0.27 | -3.75 ± 0.3
11 | CCAAAGCAAUAUUACGUGCA | -2.9 ± 0.23 | -2.81 ± 0.18
12 | UUCGAGCAAUAUUACGACAU | -1.94 ± 0.038 | -3.097 ± 0.026
13 | UCCAAGCAAUAUUACGACGU | 0.0245 ± 0.073 | -0.266 ± 0.068
14 | CAUUAGCAAUAUUACGUGAU | -1.87 ± 0.1 | -3.57 ± 0.12
15 | CUUGAGCAAUAUUACGCCUC | -0.747 ± 0.3 | –
16 | AUCGAGCAAUAUUACGUGAA | -1.83 ± 0.16 | -2.75 ± 0.14
17 | UCUUAGCAAUAUUACGACUG | -1.69 ± 0.23 | -2.53 ± 0.23
18 | AGACAGCAAUAUUACGUUCU | -3.16 ± 0.21 | -3.7 ± 0.18
19 | GGCCAGCAAUAUUACGCGUC | -1.75 ± 0.15 | -2.97 ± 0.12

Row | Sequence | self-splicing fitness (ln) (37 °C) | self-splicing fitness (ln) (30 °C)
20 | CGCAAGCAAUAUUACGAAUC | -1.29 ± 0.18 | -4.8 ± 0.38
21 | UCGAAGCAAUAUUACGAUGC | -1.92 ± 0.18 | -2.65 ± 0.15
22 | GCAAAGCAAUAUUACGAUCA | -0.882 ± 0.11 | -1.4 ± 0.12
23 | AUAAAGCAAUAUUACGGCCC | 0.503 ± 0.43 | 0.659 ± 0.39
24 | UUCGAGCAAUAUUACGGAGA | -1.38 ± 0.22 | -1.63 ± 0.22
25 | GCAGAGCAAUAUUACGAAAU | -2.79 ± 0.26 | -4.35 ± 0.29
26 | UCGCAGCAAUAUUACGCACA | -0.131 ± 0.13 | -0.0778 ± 0.1
27 | GAUCAGCAAUAUUACGUGAG | 0.101 ± 0.074 | -0.0667 ± 0.052
28 | AUCUAGCAAUAUUACGUGUA | -1.31 ± 0.11 | -2.44 ± 0.12
29 | ACGCAGCAAUAUUACGGUCC | -1.01 ± 0.13 | -2.36 ± 0.14
30 | CGCGAGCAAUAUUACGCUAU | -2.2 ± 0.23 | -3.44 ± 0.34
31 | UUCUAGCAAUAUUACGCUCG | -2.09 ± 0.49 | -2.13 ± 0.26
32 | GGUCAGCAAUAUUACGCCCA | -0.611 ± 0.28 | -1.55 ± 0.21
33 | CCGAAGCAAUAUUACGUAUG | 0.0157 ± 0.1 | -0.869 ± 0.077
34 | CGCUAGCAAUAUUACGACCC | -0.956 ± 0.45 | -0.616 ± 0.16
35 | UCAGAGCAAUAUUACGCCUA | -1.61 ± 0.26 | -2.28 ± 0.25
36 | ACACAGCAAUAUUACGACGU | 0.722 ± 0.073 | -0.452 ± 0.048
37 | GGGGAGCAAUAUUACGAGUA | -2.98 ± 0.43 | -2.89 ± 0.3
38 | UCUGAGCAAUAUUACGGGCG | -2.56 ± 0.22 | -1.33 ± 0.17
